Measurements: patent US20240270846A1 (published 2024)

Molecular target: T1, CD3 epsilon homodimer protein (UniProt P07766 23-126)
T1 construct: Construct of the homodimer is not described; also called CD3 (CD3 epsilon)
Test: SPR Biacore T200, CD3e homodimer on chip, antibody analyte;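 also: CD3 epsilon homodimer amine-coupled on CM4 sensor chip, antibodies injected as analyte at 25 °C in HBS-EP+, ratio ≥0.8 taken as binding retained versus unaltered parent antibody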

T1 sequence (P07766 23-126): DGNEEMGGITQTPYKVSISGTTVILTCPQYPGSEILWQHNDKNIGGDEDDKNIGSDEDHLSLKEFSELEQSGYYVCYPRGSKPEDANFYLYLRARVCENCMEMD

Binder | ratio of amounts bound (altered form/GLS3000)
GLS3000 H34L one-arm antibody (antibody, human IgG1, kappa, L234A L235A, N297A, name in Kabat numbering) light: DIVMTQSPLSLPVTPGEPASISCRSSQSLVHSNRNTYLLWYQQKPGQAPRLLIYKVSNRFSGVPDRFSGSGSGTDFTLKISRVEAEDVGVYYCGQGTQVPYTFGQGTKLEIKRTVAAPSVFIFPPSDEQLKSGTASVVCLLNNFYPREAKVQWKVDNALQSGNSQESVTEQDSKDSTYSLSSTLTLSKADYEKHKVYACEVTHQGLSSPVTKSFNRGEC heavy: QVQLVESGGGVVQPGRSLRLSCAASGFTFSNAWMHWVRQAPGKGLEWVAQIKAKSNNYATYYAESVKGRFTISRDDSKNSLYLQMNSLKTEDTAVYYCRYVHYGAYYGVDAWGQGTTVTVSSASTKGPSVFPLAPSSKSTSGGTAALGCLVKDYFPEPVTVSWNSGALTSGVHTFPAVLQSSGLYSLSSVVTVPSSSLGTQTYICNVNHKPSNTKVDKKVEPKSCDKTHTCPPCPAPEAAGGPSVFLFPPKPKDTLMISRTPEVTCVVVDVSHEDPEVKFNWYVDGVEVHNAKTKPREEQYASTYRVVSVLTVLHQDWLNGKEYKCKVSNKALPAPIEKTISKAKGQPREPQVYTLPPSRCELTKNQVSLSCAVKGFYPSDIAVEWESNGQPENNYKTTPPVLDSDGSFFLVSKLTVDKSRWQQGNVFSCSVMHEALHNHYTQKSLSLSPDYKDDDDK EPKSSDKTHTCPPCPAPELLGGPSVFLFPPKPKDTLMISRTPEVTCVVVDVSHEDPEVKFNWYVDGVEVHNAKTKPREEQYNSTYRVVSVLTVLHQDWLNGKEYKCKVSNKALPAPIEKTISKAKGQPREPQVCTLPPSRDELTKNQVSLWCLVKGFYPSDIAVEWESNGQPENNYKTTPPVLDSDGSFFLYSKLTVDKSRWQQGNVFSCSVMHEALHNRYTQKSLSLSP | 0.59
GLS3000 H34N one-arm antibody (antibody, human IgG1, kappa, L234A L235A, N297A, name in Kabat numbering) light: DIVMTQSPLSLPVTPGEPASISCRSSQSLVHSNRNTYLNWYQQKPGQAPRLLIYKVSNRFSGVPDRFSGSGSGTDFTLKISRVEAEDVGVYYCGQGTQVPYTFGQGTKLEIKRTVAAPSVFIFPPSDEQLKSGTASVVCLLNNFYPREAKVQWKVDNALQSGNSQESVTEQDSKDSTYSLSSTLTLSKADYEKHKVYACEVTHQGLSSPVTKSFNRGEC heavy: QVQLVESGGGVVQPGRSLRLSCAASGFTFSNAWMHWVRQAPGKGLEWVAQIKAKSNNYATYYAESVKGRFTISRDDSKNSLYLQMNSLKTEDTAVYYCRYVHYGAYYGVDAWGQGTTVTVSSASTKGPSVFPLAPSSKSTSGGTAALGCLVKDYFPEPVTVSWNSGALTSGVHTFPAVLQSSGLYSLSSVVTVPSSSLGTQTYICNVNHKPSNTKVDKKVEPKSCDKTHTCPPCPAPEAAGGPSVFLFPPKPKDTLMISRTPEVTCVVVDVSHEDPEVKFNWYVDGVEVHNAKTKPREEQYASTYRVVSVLTVLHQDWLNGKEYKCKVSNKALPAPIEKTISKAKGQPREPQVYTLPPSRCELTKNQVSLSCAVKGFYPSDIAVEWESNGQPENNYKTTPPVLDSDGSFFLVSKLTVDKSRWQQGNVFSCSVMHEALHNHYTQKSLSLSPDYKDDDDK EPKSSDKTHTCPPCPAPELLGGPSVFLFPPKPKDTLMISRTPEVTCVVVDVSHEDPEVKFNWYVDGVEVHNAKTKPREEQYNSTYRVVSVLTVLHQDWLNGKEYKCKVSNKALPAPIEKTISKAKGQPREPQVCTLPPSRDELTKNQVSLWCLVKGFYPSDIAVEWESNGQPENNYKTTPPVLDSDGSFFLYSKLTVDKSRWQQGNVFSCSVMHEALHNRYTQKSLSLSP | 0.65
GLS3000 H34Q one-arm antibody (antibody, human IgG1, kappa, L234A L235A, N297A, name in Kabat numbering) light: DIVMTQSPLSLPVTPGEPASISCRSSQSLVHSNRNTYLQWYQQKPGQAPRLLIYKVSNRFSGVPDRFSGSGSGTDFTLKISRVEAEDVGVYYCGQGTQVPYTFGQGTKLEIKRTVAAPSVFIFPPSDEQLKSGTASVVCLLNNFYPREAKVQWKVDNALQSGNSQESVTEQDSKDSTYSLSSTLTLSKADYEKHKVYACEVTHQGLSSPVTKSFNRGEC heavy: QVQLVESGGGVVQPGRSLRLSCAASGFTFSNAWMHWVRQAPGKGLEWVAQIKAKSNNYATYYAESVKGRFTISRDDSKNSLYLQMNSLKTEDTAVYYCRYVHYGAYYGVDAWGQGTTVTVSSASTKGPSVFPLAPSSKSTSGGTAALGCLVKDYFPEPVTVSWNSGALTSGVHTFPAVLQSSGLYSLSSVVTVPSSSLGTQTYICNVNHKPSNTKVDKKVEPKSCDKTHTCPPCPAPEAAGGPSVFLFPPKPKDTLMISRTPEVTCVVVDVSHEDPEVKFNWYVDGVEVHNAKTKPREEQYASTYRVVSVLTVLHQDWLNGKEYKCKVSNKALPAPIEKTISKAKGQPREPQVYTLPPSRCELTKNQVSLSCAVKGFYPSDIAVEWESNGQPENNYKTTPPVLDSDGSFFLVSKLTVDKSRWQQGNVFSCSVMHEALHNHYTQKSLSLSPDYKDDDDK EPKSSDKTHTCPPCPAPELLGGPSVFLFPPKPKDTLMISRTPEVTCVVVDVSHEDPEVKFNWYVDGVEVHNAKTKPREEQYNSTYRVVSVLTVLHQDWLNGKEYKCKVSNKALPAPIEKTISKAKGQPREPQVCTLPPSRDELTKNQVSLWCLVKGFYPSDIAVEWESNGQPENNYKTTPPVLDSDGSFFLYSKLTVDKSRWQQGNVFSCSVMHEALHNRYTQKSLSLSP | 0.25
GLS3000 H34M one-arm antibody (antibody, human IgG1, kappa, L234A L235A, N297A, name in Kabat numbering) light: DIVMTQSPLSLPVTPGEPASISCRSSQSLVHSNRNTYLMWYQQKPGQAPRLLIYKVSNRFSGVPDRFSGSGSGTDFTLKISRVEAEDVGVYYCGQGTQVPYTFGQGTKLEIKRTVAAPSVFIFPPSDEQLKSGTASVVCLLNNFYPREAKVQWKVDNALQSGNSQESVTEQDSKDSTYSLSSTLTLSKADYEKHKVYACEVTHQGLSSPVTKSFNRGEC heavy: QVQLVESGGGVVQPGRSLRLSCAASGFTFSNAWMHWVRQAPGKGLEWVAQIKAKSNNYATYYAESVKGRFTISRDDSKNSLYLQMNSLKTEDTAVYYCRYVHYGAYYGVDAWGQGTTVTVSSASTKGPSVFPLAPSSKSTSGGTAALGCLVKDYFPEPVTVSWNSGALTSGVHTFPAVLQSSGLYSLSSVVTVPSSSLGTQTYICNVNHKPSNTKVDKKVEPKSCDKTHTCPPCPAPEAAGGPSVFLFPPKPKDTLMISRTPEVTCVVVDVSHEDPEVKFNWYVDGVEVHNAKTKPREEQYASTYRVVSVLTVLHQDWLNGKEYKCKVSNKALPAPIEKTISKAKGQPREPQVYTLPPSRCELTKNQVSLSCAVKGFYPSDIAVEWESNGQPENNYKTTPPVLDSDGSFFLVSKLTVDKSRWQQGNVFSCSVMHEALHNHYTQKSLSLSPDYKDDDDK EPKSSDKTHTCPPCPAPELLGGPSVFLFPPKPKDTLMISRTPEVTCVVVDVSHEDPEVKFNWYVDGVEVHNAKTKPREEQYNSTYRVVSVLTVLHQDWLNGKEYKCKVSNKALPAPIEKTISKAKGQPREPQVCTLPPSRDELTKNQVSLWCLVKGFYPSDIAVEWESNGQPENNYKTTPPVLDSDGSFFLYSKLTVDKSRWQQGNVFSCSVMHEALHNRYTQKSLSLSP | 0.35
GLS3000 H34P one-arm antibody (antibody, human IgG1, kappa, L234A L235A, N297A, name in Kabat numbering) light: DIVMTQSPLSLPVTPGEPASISCRSSQSLVHSNRNTYLPWYQQKPGQAPRLLIYKVSNRFSGVPDRFSGSGSGTDFTLKISRVEAEDVGVYYCGQGTQVPYTFGQGTKLEIKRTVAAPSVFIFPPSDEQLKSGTASVVCLLNNFYPREAKVQWKVDNALQSGNSQESVTEQDSKDSTYSLSSTLTLSKADYEKHKVYACEVTHQGLSSPVTKSFNRGEC heavy: QVQLVESGGGVVQPGRSLRLSCAASGFTFSNAWMHWVRQAPGKGLEWVAQIKAKSNNYATYYAESVKGRFTISRDDSKNSLYLQMNSLKTEDTAVYYCRYVHYGAYYGVDAWGQGTTVTVSSASTKGPSVFPLAPSSKSTSGGTAALGCLVKDYFPEPVTVSWNSGALTSGVHTFPAVLQSSGLYSLSSVVTVPSSSLGTQTYICNVNHKPSNTKVDKKVEPKSCDKTHTCPPCPAPEAAGGPSVFLFPPKPKDTLMISRTPEVTCVVVDVSHEDPEVKFNWYVDGVEVHNAKTKPREEQYASTYRVVSVLTVLHQDWLNGKEYKCKVSNKALPAPIEKTISKAKGQPREPQVYTLPPSRCELTKNQVSLSCAVKGFYPSDIAVEWESNGQPENNYKTTPPVLDSDGSFFLVSKLTVDKSRWQQGNVFSCSVMHEALHNHYTQKSLSLSPDYKDDDDK EPKSSDKTHTCPPCPAPELLGGPSVFLFPPKPKDTLMISRTPEVTCVVVDVSHEDPEVKFNWYVDGVEVHNAKTKPREEQYNSTYRVVSVLTVLHQDWLNGKEYKCKVSNKALPAPIEKTISKAKGQPREPQVCTLPPSRDELTKNQVSLWCLVKGFYPSDIAVEWESNGQPENNYKTTPPVLDSDGSFFLYSKLTVDKSRWQQGNVFSCSVMHEALHNRYTQKSLSLSP | 0.34
GLS3000 H34R one-arm antibody (antibody, human IgG1, kappa, L234A L235A, N297A, name in Kabat numbering) light: DIVMTQSPLSLPVTPGEPASISCRSSQSLVHSNRNTYLRWYQQKPGQAPRLLIYKVSNRFSGVPDRFSGSGSGTDFTLKISRVEAEDVGVYYCGQGTQVPYTFGQGTKLEIKRTVAAPSVFIFPPSDEQLKSGTASVVCLLNNFYPREAKVQWKVDNALQSGNSQESVTEQDSKDSTYSLSSTLTLSKADYEKHKVYACEVTHQGLSSPVTKSFNRGEC heavy: QVQLVESGGGVVQPGRSLRLSCAASGFTFSNAWMHWVRQAPGKGLEWVAQIKAKSNNYATYYAESVKGRFTISRDDSKNSLYLQMNSLKTEDTAVYYCRYVHYGAYYGVDAWGQGTTVTVSSASTKGPSVFPLAPSSKSTSGGTAALGCLVKDYFPEPVTVSWNSGALTSGVHTFPAVLQSSGLYSLSSVVTVPSSSLGTQTYICNVNHKPSNTKVDKKVEPKSCDKTHTCPPCPAPEAAGGPSVFLFPPKPKDTLMISRTPEVTCVVVDVSHEDPEVKFNWYVDGVEVHNAKTKPREEQYASTYRVVSVLTVLHQDWLNGKEYKCKVSNKALPAPIEKTISKAKGQPREPQVYTLPPSRCELTKNQVSLSCAVKGFYPSDIAVEWESNGQPENNYKTTPPVLDSDGSFFLVSKLTVDKSRWQQGNVFSCSVMHEALHNHYTQKSLSLSPDYKDDDDK EPKSSDKTHTCPPCPAPELLGGPSVFLFPPKPKDTLMISRTPEVTCVVVDVSHEDPEVKFNWYVDGVEVHNAKTKPREEQYNSTYRVVSVLTVLHQDWLNGKEYKCKVSNKALPAPIEKTISKAKGQPREPQVCTLPPSRDELTKNQVSLWCLVKGFYPSDIAVEWESNGQPENNYKTTPPVLDSDGSFFLYSKLTVDKSRWQQGNVFSCSVMHEALHNRYTQKSLSLSP | 0.2
